In patent publication US20260098059A1 (ENDOMET BIOSCIENCES, published 2026):
Several values for one entry are separate records, joined by “and”; a condition that tells them apart may be missing. Equal values may be shown once. Bridges are numbered along the chain shown (N, C = ends). Where no end group is shown, it is not given here. [ ]: non-standard residue; d: D form. NMeW = CN[C@@H](Cc1c[nH]c2ccccc12)C(=O)O; Chg = N[C@H](C(=O)O)C1CCCCC1; αMeV = CC(C)[C@](C)(N)C(=O)O; αMeS = C[C@](N)(CO)C(=O)O; NMeA = CN[C@@H](C)C(=O)O

T1: β-catenin (UniProt P35222 134-665, limits assumed, biotinylated in the SPR and plate assays)
T1 sequence (looked up): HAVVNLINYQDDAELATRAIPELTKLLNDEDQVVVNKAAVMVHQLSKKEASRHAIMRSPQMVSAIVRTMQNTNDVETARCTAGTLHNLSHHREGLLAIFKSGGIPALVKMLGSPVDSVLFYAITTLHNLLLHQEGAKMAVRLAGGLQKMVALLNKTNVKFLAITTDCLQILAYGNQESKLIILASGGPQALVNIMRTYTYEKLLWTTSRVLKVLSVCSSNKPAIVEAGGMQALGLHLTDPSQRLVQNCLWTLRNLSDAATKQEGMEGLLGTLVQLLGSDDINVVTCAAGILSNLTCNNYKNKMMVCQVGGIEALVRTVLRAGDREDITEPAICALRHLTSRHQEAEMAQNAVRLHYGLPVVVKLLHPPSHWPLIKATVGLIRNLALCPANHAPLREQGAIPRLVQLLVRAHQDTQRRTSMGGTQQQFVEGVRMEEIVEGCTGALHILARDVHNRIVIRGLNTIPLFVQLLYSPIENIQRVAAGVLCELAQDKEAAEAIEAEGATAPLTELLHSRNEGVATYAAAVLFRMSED

B1: SEQ ID NO: 405 (peptide)
peptide: WAQKILDEHGQRVWG
HELM: PEPTIDE1{[O=C(O)CCC(=O)[*:2]].W.[meA].Q.K.I.L.D.E.H.[O=C([C@@H](N[*:1])C1CCCCC1)[*:2]].Q.R.V.W.G.[am]}$PEPTIDE1,PEPTIDE1,5:R3-9:R3$$$V2.0
SMILES: CC[C@H](C)[C@@H]1NC(=O)[C@@H](NC(=O)[C@H](CCC(N)=O)NC(=O)[C@H](C)N(C)C(=O)[C@H](Cc2c[nH]c3ccccc23)NC(=O)CCC(=O)O)CCCCNC(=O)CC[C@@H](C(=O)N[C@@H](Cc2c[nH]cn2)C(=O)N[C@H](C(=O)N[C@@H](CCC(N)=O)C(=O)N[C@@H](CCCNC(=N)N)C(=O)N[C@H](C(=O)N[C@@H](Cc2c[nH]c3ccccc23)C(=O)NCC(N)=O)C(C)C)C2CCCCC2)NC(=O)[C@H](CC(=O)O)NC(=O)[C@H](CC(C)C)NC1=O
B2: SEQ ID NO: 438 (peptide)
peptide: W[NMeA]QSILDEHVQKVWG-NH2
modifications: lactam 8-12; not fully specified (N-terminus); printed as H17C8C(O)NH-W-NmeA-QSILDE*HVQK*VWG-NH2
B3: SEQ ID NO: 413 (peptide)
peptide: ARLPESILDEHVQRVWP
HELM: PEPTIDE1{[ac].[bAla].R.L.P.E.S.I.L.D.E.H.V.Q.R.V.W.P.[am]}$$$$V2.0
SMILES: CC[C@H](C)[C@H](NC(=O)[C@H](CO)NC(=O)[C@H](CCC(=O)O)NC(=O)[C@@H]1CCCN1C(=O)[C@H](CC(C)C)NC(=O)[C@H](CCCNC(=N)N)NC(=O)CCNC(C)=O)C(=O)N[C@@H](CC(C)C)C(=O)N[C@@H](CC(=O)O)C(=O)N[C@@H](CCC(=O)O)C(=O)N[C@@H](Cc1c[nH]cn1)C(=O)N[C@H](C(=O)N[C@@H](CCC(N)=O)C(=O)N[C@@H](CCCNC(=N)N)C(=O)N[C@H](C(=O)N[C@@H](Cc1c[nH]c2ccccc12)C(=O)N1CCC[C@H]1C(N)=O)C(C)C)C(C)C
B4: SEQ ID NO: 402 (peptide)
peptide: WAQKILDEHVQRVWG
HELM: PEPTIDE1{[ac].W.[meA].Q.K.I.L.D.E.H.V.Q.R.V.W.G.[am]}$PEPTIDE1,PEPTIDE1,5:R3-9:R3$$$V2.0
SMILES: CC[C@H](C)[C@@H]1NC(=O)[C@@H](NC(=O)[C@H](CCC(N)=O)NC(=O)[C@H](C)N(C)C(=O)[C@H](Cc2c[nH]c3ccccc23)NC(C)=O)CCCCNC(=O)CC[C@@H](C(=O)N[C@@H](Cc2c[nH]cn2)C(=O)N[C@H](C(=O)N[C@@H](CCC(N)=O)C(=O)N[C@@H](CCCNC(=N)N)C(=O)N[C@H](C(=O)N[C@@H](Cc2c[nH]c3ccccc23)C(=O)NCC(N)=O)C(C)C)C(C)C)NC(=O)[C@H](CC(=O)O)NC(=O)[C@H](CC(C)C)NC1=O
B5: SEQ ID NO: 432 (peptide)
peptide: W[NMeA]QKILDDH[Chg]QRVWG-NH2
modifications: lactam 4-8; not fully specified (N-terminus); printed as H23C11C(O)NH-W-NMeA-QK*ILDD*H-Chg-QRVWG-NH2
B6: SEQ ID NO: 431 (peptide)
peptide: W[NMeA]QKILDDH[Chg]QRVWG-NH2
modifications: lactam 4-8; not fully specified (N-terminus); printed as H17C8C(O)NH-W-NMeA-QK*ILDD*H-Chg-QRVWG-NH2
B7: SEQ ID NO: 449 (peptide)
peptide: WAQKILDEHGQRVWR
HELM: PEPTIDE1{[ac].W.[meA].Q.K.I.L.D.E.H.[O=C([C@@H](N[*:1])C1CCCCC1)[*:2]].Q.R.V.W.R.[am]}$PEPTIDE1,PEPTIDE1,5:R3-9:R3$$$V2.0
SMILES: CC[C@H](C)[C@@H]1NC(=O)[C@@H](NC(=O)[C@H](CCC(N)=O)NC(=O)[C@H](C)N(C)C(=O)[C@H](Cc2c[nH]c3ccccc23)NC(C)=O)CCCCNC(=O)CC[C@@H](C(=O)N[C@@H](Cc2c[nH]cn2)C(=O)N[C@H](C(=O)N[C@@H](CCC(N)=O)C(=O)N[C@@H](CCCNC(=N)N)C(=O)N[C@H](C(=O)N[C@@H](Cc2c[nH]c3ccccc23)C(=O)N[C@@H](CCCNC(=N)N)C(N)=O)C(C)C)C2CCCCC2)NC(=O)[C@H](CC(=O)O)NC(=O)[C@H](CC(C)C)NC1=O
B8: SEQ ID NO: 435 (peptide)
peptide: WAQKILNEHGQRVWG
HELM: PEPTIDE1{[ac].W.[meA].Q.K.I.L.N.E.H.[O=C([C@@H](N[*:1])C1CCCCC1)[*:2]].Q.R.V.W.G.[am]}$PEPTIDE1,PEPTIDE1,5:R3-9:R3$$$V2.0
SMILES: CC[C@H](C)[C@@H]1NC(=O)[C@@H](NC(=O)[C@H](CCC(N)=O)NC(=O)[C@H](C)N(C)C(=O)[C@H](Cc2c[nH]c3ccccc23)NC(C)=O)CCCCNC(=O)CC[C@@H](C(=O)N[C@@H](Cc2c[nH]cn2)C(=O)N[C@H](C(=O)N[C@@H](CCC(N)=O)C(=O)N[C@@H](CCCNC(=N)N)C(=O)N[C@H](C(=O)N[C@@H](Cc2c[nH]c3ccccc23)C(=O)NCC(N)=O)C(C)C)C2CCCCC2)NC(=O)[C@H](CC(N)=O)NC(=O)[C@H](CC(C)C)NC1=O
B9: SEQ ID NO: 430 (peptide)
peptide: WAQKILDDHGQRVWG
HELM: PEPTIDE1{[ac].W.[meA].Q.K.I.L.D.D.H.[O=C([C@@H](N[*:1])C1CCCCC1)[*:2]].Q.R.V.W.G.[am]}$PEPTIDE1,PEPTIDE1,5:R3-9:R3$$$V2.0
SMILES: CC[C@H](C)[C@@H]1NC(=O)[C@@H](NC(=O)[C@H](CCC(N)=O)NC(=O)[C@H](C)N(C)C(=O)[C@H](Cc2c[nH]c3ccccc23)NC(C)=O)CCCCNC(=O)C[C@@H](C(=O)N[C@@H](Cc2c[nH]cn2)C(=O)N[C@H](C(=O)N[C@@H](CCC(N)=O)C(=O)N[C@@H](CCCNC(=N)N)C(=O)N[C@H](C(=O)N[C@@H](Cc2c[nH]c3ccccc23)C(=O)NCC(N)=O)C(C)C)C2CCCCC2)NC(=O)[C@H](CC(=O)O)NC(=O)[C@H](CC(C)C)NC1=O
B10: SEQ ID NO: 410 (peptide)
peptide: ARLPESILDEHVQRVWP
HELM: PEPTIDE1{[bAla].R.L.P.E.S.I.L.D.E.H.V.Q.R.V.W.P.[am]}$$$$V2.0
SMILES: CC[C@H](C)[C@H](NC(=O)[C@H](CO)NC(=O)[C@H](CCC(=O)O)NC(=O)[C@@H]1CCCN1C(=O)[C@H](CC(C)C)NC(=O)[C@H](CCCNC(=N)N)NC(=O)CCN)C(=O)N[C@@H](CC(C)C)C(=O)N[C@@H](CC(=O)O)C(=O)N[C@@H](CCC(=O)O)C(=O)N[C@@H](Cc1c[nH]cn1)C(=O)N[C@H](C(=O)N[C@@H](CCC(N)=O)C(=O)N[C@@H](CCCNC(=N)N)C(=O)N[C@H](C(=O)N[C@@H](Cc1c[nH]c2ccccc12)C(=O)N1CCC[C@H]1C(N)=O)C(C)C)C(C)C
B11: SEQ ID NO: 403 (peptide)
peptide: WAQKILDEHGQRVWG
HELM: PEPTIDE1{W.[meA].Q.K.I.L.D.E.H.[O=C([C@@H](N[*:1])C1CCCCC1)[*:2]].Q.R.V.W.G.[am]}$PEPTIDE1,PEPTIDE1,4:R3-8:R3$$$V2.0
SMILES: CC[C@H](C)[C@@H]1NC(=O)[C@@H](NC(=O)[C@H](CCC(N)=O)NC(=O)[C@H](C)N(C)C(=O)[C@@H](N)Cc2c[nH]c3ccccc23)CCCCNC(=O)CC[C@@H](C(=O)N[C@@H](Cc2c[nH]cn2)C(=O)N[C@H](C(=O)N[C@@H](CCC(N)=O)C(=O)N[C@@H](CCCNC(=N)N)C(=O)N[C@H](C(=O)N[C@@H](Cc2c[nH]c3ccccc23)C(=O)NCC(N)=O)C(C)C)C2CCCCC2)NC(=O)[C@H](CC(=O)O)NC(=O)[C@H](CC(C)C)NC1=O
B12: SEQ ID NO: 428 (peptide)
peptide: RWPQKILDEHVRRVWR
HELM: PEPTIDE1{[ac].R.W.P.Q.K.I.L.D.E.H.V.R.R.V.W.R.[am]}$PEPTIDE1,PEPTIDE1,6:R3-10:R3$$$V2.0
SMILES: CC[C@H](C)[C@@H]1NC(=O)[C@@H](NC(=O)[C@H](CCC(N)=O)NC(=O)[C@@H]2CCCN2C(=O)[C@H](Cc2c[nH]c3ccccc23)NC(=O)[C@H](CCCNC(=N)N)NC(C)=O)CCCCNC(=O)CC[C@@H](C(=O)N[C@@H](Cc2c[nH]cn2)C(=O)N[C@H](C(=O)N[C@@H](CCCNC(=N)N)C(=O)N[C@@H](CCCNC(=N)N)C(=O)N[C@H](C(=O)N[C@@H](Cc2c[nH]c3ccccc23)C(=O)N[C@@H](CCCNC(=N)N)C(N)=O)C(C)C)C(C)C)NC(=O)[C@H](CC(=O)O)NC(=O)[C@H](CC(C)C)NC1=O

Target: T1, β-catenin
Test: cell-based or functional assay

| Binder | Proliferation IC50, Wnt dependent cells | Wnt Reporter EC50 | Proliferation IC50, Endo cells |
| --- | --- | --- | --- |
| B1 | 26.8 µM | > 15 µM and ≤ 22.5 µM | – |
| B2 | – | ≤ 7.5 µM | – |
| B3 | – | > 30 µM | – |
| B4 | – | > 30 µM | – |
| B5 | 14.9 µM | > 7.5 µM and ≤ 15 µM | 0.8 µM |
| B6 | – | ≤ 7.5 µM | – |
| B7 | – | > 30 µM | – |
| B8 | – | > 30 µM | – |
| B9 | – | > 15 µM and ≤ 22.5 µM | – |
| B10 | – | > 30 µM | – |
| H-W[NMeW]E[αMeS]ILDEH[αMeV]QRVWG-NH2 [SEQ ID NO: 38] | – | > 30 µM | – |
| H-W[NMeW]ESILDEH[αMeV]QRVWG-NH2 [SEQ ID NO: 39] | – | > 30 µM | – |
| B11 | – | > 30 µM | – |
| B12 | – | > 30 µM | – |

Target: T1, β-catenin
Test: competitive FP
Summary of the method: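 Competitive fluorescence polarization with inhibitor peptide serially diluted from 10 nM to 30 uM; polarization read at 470 nm excitation, 520 nm emission. Experiments performed three times.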

| Binder | Kd |
| --- | --- |
| B1 | ≤ 0.4 µM |
| B2 | ≤ 0.4 µM |
| B3 | ≤ 0.4 µM |
| B4 | ≤ 0.4 µM |
| B5 | ≤ 0.4 µM |
| B6 | ≤ 0.4 µM |
| B7 | ≤ 0.4 µM |
| B8 | ≤ 0.4 µM |
| B9 | ≤ 0.4 µM |
| B10 | > 0.4 µM and ≤ 1 µM |
| H-W[NMeW]E[αMeS]ILDEH[αMeV]QRVWG-NH2 [SEQ ID NO: 38] | ≤ 0.4 µM |
| H-W[NMeW]ESILDEH[αMeV]QRVWG-NH2 [SEQ ID NO: 39] | ≤ 0.4 µM |
| B11 | ≤ 0.4 µM |
| B12 | ≤ 0.4 µM |
